We go through 1 substance from PMC9461663, “Covalent Inhibition of Pyruvate Kinase M2 Reprograms Metabolic and Inflammatory Pathways in Hepatic Macrophages against Non-alcoholic Fatty Liver Disease” (International Journal of Biological Sciences, 2022).

In general, stoichiometry N refers to the number of molecules, sites or subunits per partner or assembly.

This assay has as its target Pyruvate kinase M2 (mouse (endogenous in RAW264.7)) (UniProt P52480). The assay is described as follows: not stated; PKM2 tetramer in LPS-treated RAW264.7 cells with celastrol (Fig. S4); method not given.

Sequence of Pyruvate kinase M2, P52480 1-531 (enzyme; other documents disagree on this pair) (P52480 whole entry): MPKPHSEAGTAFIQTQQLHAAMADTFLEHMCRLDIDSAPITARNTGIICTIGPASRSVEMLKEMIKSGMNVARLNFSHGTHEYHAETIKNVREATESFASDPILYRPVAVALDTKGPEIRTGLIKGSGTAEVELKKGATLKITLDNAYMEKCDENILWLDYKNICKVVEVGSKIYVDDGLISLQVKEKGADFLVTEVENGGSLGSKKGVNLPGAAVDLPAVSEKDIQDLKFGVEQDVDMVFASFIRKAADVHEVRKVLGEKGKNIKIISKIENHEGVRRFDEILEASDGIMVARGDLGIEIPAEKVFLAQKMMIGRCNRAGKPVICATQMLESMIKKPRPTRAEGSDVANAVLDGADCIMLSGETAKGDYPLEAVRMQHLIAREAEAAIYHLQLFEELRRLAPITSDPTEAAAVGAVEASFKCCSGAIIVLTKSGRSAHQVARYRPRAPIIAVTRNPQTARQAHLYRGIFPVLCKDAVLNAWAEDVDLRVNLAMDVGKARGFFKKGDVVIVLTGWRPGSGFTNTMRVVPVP

Substance “Pyruvate kinase M2, P52480 1-531 (enzyme; other documents disagree on this pair)” yielded a stoichiometry N of 4.
